Test results published in patent US20200239888.
Where two headings read alike, the source gives them in different places.

Columns and labels:
[1] = target: NanoLuc luciferase control (NLUC-HA) (UniProt Q9GV45); conditions: full PS, nanoBRET, control protein
[2] = target: FUS(375-526)[P525L][R/S in 375-422]-NLUC-HA P525L; all Arg to Ser in 375-422 (UniProt P35637); conditions: full PS, nanoBRET
[3] = target: FUS(375-526)[P525L][R/S in 454-526]-NLUC-HA P525L; all Arg to Ser in 454-526 (UniProt P35637); conditions: full PS, nanoBRET
[4] = target: FUS(1-526)[P525L][R/S in 375-422 and 454-526]-NLUC-FLAG P525L; all Arg to Ser in 375-422 and 454-526 (UniProt P35637); conditions: nanoBRET
[5] = target: HA-NES-β23-NLUC-FUS(375-526)[P525L][R/S in 375-422 and 454-526] P525L; all Arg to Ser in 375-422 and 454-526 (UniProt P35637); conditions: full PS, nanoBRET
[6] = system: HA-NES-β23-NLUC (artificial); conditions: full PS, nanoBRET, control fusion
[7] = 2'-MOE at 1-5 and 16-20, DNA at 6-15, all C 5mC
[8] = cEt at 1-5 and 16-20, DNA at 6-15, all C 5mC
[9] = 2'-F at 1-5 and 16-20, DNA at 6-15, 5mC at C8, C9, C11

CTGCTAGCCTCTGGATTTGA [766633 (2'-MOE 5-10-5 gapmer)]
Kd ([1]; 2'-MOE at 1-5 and 16-20, DNA at 6-15, all C 5mC, 100 mM KOAc, 20 mM Tris pH 8.0, 1 mM EDTA, 0.01% NP-40, RT): > 1000 nM
Kd [2, 7]: 12.4 nM
Kd [3, 7]: 282 nM
Kd ([4]; 2'-MOE at 1-5 and 16-20, DNA at 6-15, full PS, all C 5mC): 1.6 nM
Kd [5, 7]: > 1000 nM
Kd [6, 7]: > 1000 nM

CTGCTAGCCTCTGGATTTGA [766635 (cEt 5-10-5 gapmer)]
Kd [1, 8]: > 1000 nM
Kd [2, 8]: 14.3 nM
Kd [3, 8]: 290 nM
Kd ([4]; cEt at 1-5 and 16-20, DNA at 6-15, full PS, all C 5mC): 3.7 nM
Kd [5, 8]: > 1000 nM
Kd [6, 8]: 950 nM

CUGCUAGCCTCTGGAUUUGA [766637 (2'-F 5-10-5 gapmer)]
Kd [1, 9]: > 1000 nM
Kd [2, 9]: 1.8 nM
Kd [3, 9]: 38.4 nM
Kd ([4]; 2'-F at 1-5 and 16-20, DNA at 6-15, full PS, 5mC at C8, C9, C11): 0.3 nM
Kd [5, 9]: 200 nM
Kd [6, 9]: 345 nM

CUGCUAGCCUCUGGAUUUGA [JB39 (RNA, phosphodiester)]
Kd [4]: 248 nM
